Measurements reported in patent publication US20240400616A1 (Bicycle, published 2024).
*1 amine or outer side, *2 acyl side, *3 side chain or, on linkers, in order; H or OH if unused. Bridges are numbered along the chain shown (N, C = ends). Where no end group is shown, it is not given here. [ ]: non-standard residue; d: D form. TATA = O=C(CC[*:1])N1CN(C(=O)CC[*:2])CN(C(=O)CC[*:3])C1; fluorescein = fluorescein (Fl) label on lysine; 1Nal = N[C@@H](Cc1cccc2ccccc12)C(=O)O; PABC = O=C(OCc1ccc(N[*:1])cc1)[*:2]; Glutaryl = O=C(CCCC(=O)[*:2])[*:1]; Hyp = O=C(O)[C@@H]1C[C@@H](O)CN1; hArg = N=C(N)NCCCC[C@H](N)C(=O)O; Cit = NC(=O)NCCC[C@H](N)C(=O)O; βAla = NCCC(=O)O; Sar = CNCC(=O)O

Columns and labels:
[1] = biological target: T1, Human Nectin-4 (residues Gly32-Ser349; NCBI RefSeq: NP_112178.2) with C-terminal FLAG tag, biotinylated (human, UniProt Q96NY8 32-349, randomly biotinylated with EZ-Link Sulfo-NHS-LC-LC-Biotin); assay: Biacore SPR, biotinylated Nectin-4 captured on streptavidin chip, peptide as analyte; n = 1
T1 construct: range 32-349; also called human Necin-4 protein; biotinylated Nectin-4; not shown: C-terminal FLAG tag
T1 sequence (looked up): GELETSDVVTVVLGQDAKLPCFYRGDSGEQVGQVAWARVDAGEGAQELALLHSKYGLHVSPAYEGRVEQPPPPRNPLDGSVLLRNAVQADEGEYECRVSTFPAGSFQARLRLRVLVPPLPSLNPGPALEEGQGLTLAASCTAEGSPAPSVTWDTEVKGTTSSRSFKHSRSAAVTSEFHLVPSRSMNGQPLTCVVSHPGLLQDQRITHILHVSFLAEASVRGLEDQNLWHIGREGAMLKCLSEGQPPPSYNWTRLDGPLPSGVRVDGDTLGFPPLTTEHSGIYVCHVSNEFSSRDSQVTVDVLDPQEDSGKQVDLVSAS

[2] = biological target: T2, human Nectin-4 (protein used in the fluorescence polarisation direct and competition binding assays) (human, UniProt Q96NY8 32-349); assay: fluorescence polarisation competition; competitor: fluorescent tracer SEQ ID NO: 2; 2 experiments
T2 construct: It may be the Gly32-Ser349 FLAG construct described for SPR
T2 sequence (looked up): T1 sequence (looked up)
Protocol: (§1) Affinity of the peptides of the invention for human Nectin-4 (Ki) was determined using a fluorescence polarisation assay, in accordance with the methods disclosed in WO 2016/067035. Peptides of the invention with a fluorescent tag (either fluorescein, SIGMA or Alexa Fluor488™, Fisher Scientific) were diluted to 2.5 nM in PBS with 0.01% tween 20 or 50 mM HEPES with 100 mM NaCl and 0.01% tween pH 7.4 (both referred to as assay buffer). […] Measurements were conducted on a BMG PHERAstar FS equipped with an “FP 485 520 520” optic module which excites at 485 nm and detects parallel and perpendicular emission at 520 nm. The PHERAstar FS was set at 25° C. with 200 flashes per well and a positioning delay of 0.1 second, with each well measured at 5 to 10 minute intervals for 60 minutes. […] Data was analysed using Systat Sigmaplot version 12.0. mP values were fit to a user defined quadratic equation to generate a Kd value: f=ymin+ (ymax−ymin)/Lig*((x+Lig+Kd)/2-sqrt((((x+Lig+Kd)/2)\hat{ }2)−(Lig*x))).
(§2) Peptides were diluted to an appropriate concentration in assay buffer as described in the direct binding assay with a maximum of 5% DMSO, then serially diluted 1 in 2. […] Measurements were conducted as for the direct binding assay, however the gain was determined prior to the first measurement. […]

[3] = biological target: T3, Nectin-4 on MDA-MB-468 cells (UniProt Q96NY8 32-510, limits assumed); assay: HCS cell-binding assay on MDA-MB-468 cells at 4°C: cells incubated with the test agent, washed, detected with a fluorescent antibody to MMAE; readout membrane mean intensity CH2 (RFU) [A]
T3 construct: whole, on cells; the cell line is a human breast cancer line; also called PVRL-4
T3 sequence (looked up): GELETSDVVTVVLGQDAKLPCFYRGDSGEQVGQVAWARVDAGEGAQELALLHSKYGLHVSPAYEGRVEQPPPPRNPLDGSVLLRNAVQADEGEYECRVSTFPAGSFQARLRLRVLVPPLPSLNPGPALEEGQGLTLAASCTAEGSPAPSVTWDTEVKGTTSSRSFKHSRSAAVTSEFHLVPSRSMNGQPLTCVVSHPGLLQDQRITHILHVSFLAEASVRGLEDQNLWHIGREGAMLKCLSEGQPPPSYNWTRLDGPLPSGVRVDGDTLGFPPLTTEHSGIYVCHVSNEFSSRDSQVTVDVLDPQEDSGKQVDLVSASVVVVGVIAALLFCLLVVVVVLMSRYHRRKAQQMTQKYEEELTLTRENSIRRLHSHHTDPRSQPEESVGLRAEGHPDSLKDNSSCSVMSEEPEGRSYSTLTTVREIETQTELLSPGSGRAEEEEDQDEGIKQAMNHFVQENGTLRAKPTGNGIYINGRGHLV
Protocol: (§3) HCS assay was used in Nectin-4 BDC binding study. Cells were incubated with test agent and then washed. Detection was by a fluorescent antibody to MMAE.

[4] = biological target: T3, Nectin-4 on MDA-MB-468 cells; assay: historical Kd as printed in Table 44; assay not described
[5] = biological target: T3, Nectin-4 on MDA-MB-468 cells; assay: HCS cell binding assay on MDA-MB-468 cells, detection with fluorescent anti-MMAE antibody
Protocol: as §3

[6] = biological target: T1, Human Nectin-4 (residues Gly32-Ser349; …); assay: Biacore SPR, biotinylated Nectin-4 captured on streptavidin chip, conjugate as analyte
[7] = biological target: T2, human Nectin-4 (protein used in the …); assay: fluorescence polarisation direct binding assay
Protocol: as §1

[8] = biological target: T1, Human Nectin-4 (residues Gly32-Ser349; …); assay: Biacore SPR, biotinylated Nectin-4 captured on streptavidin chip, peptide as analyte; n = 4
[9] = biological target: T2, human Nectin-4 (protein used in the …); assay: fluorescence polarisation competition; competitor: fluorescent tracer SEQ ID NO: 2; 6 experiments
Protocol: as §1, §2

Ac-[βAla][Sar][Sar][Sar][Sar][Sar]CP[1Nal][dD]CM[hArg]DWSTP[Hyp]WC (linker 7-11-21 via TATA, Bicyclic peptide) [BCY8122: Ac-[B-Ala][Sar5]-(SEQ ID NO: 1), cyclised with TATA]
Kd [1]: 0.89 nM
Ki [2]: 3 nM

B1: BCY8116: (SEQ ID NO: 1), cyclised with TATA (peptide)
peptide: CPADCMRDWSTPPWC
modifications: core as printed Ci-P1-[1Nal]2-[dD]3-Cii-M4-[HArg]5-D6-W7-S8-T9-P10-[HyP]11-W12-Ciii (1Nal = 1-naphthylalanine, dD = D-Asp, HArg = homoarginine, HyP = hydroxyproline); Ci, Cii and Ciii covalently bound to the TATA scaffold
notes: Bicyclic peptide
Kd [1]: 0.372 nM

B2: BCY8245: MMAE-PABC-Cit-Val-Glutaryl-BCY8234 (BCY8234 = [B-Ala][Sar10]-(SEQ ID NO: 1), cyclised with TATA) (peptide)
peptide: {MMAE-PABC-Cit-Val-Glutaryl}-[βAla][Sar][Sar][Sar][Sar][Sar][Sar][Sar][Sar][Sar][Sar]CP[1Nal][dD]CM[hArg]DWSTP[Hyp]WC
modifications: linker 12-16-26 via TATA
notes: Bicyclic peptide drug conjugate (BDC) with an MMAE to drug ratio of 1; also called BT8009
EC50 (read off the curve) [3]: ~3 nM
Kd [4]: 5.18 nM
Kd [5]: 3.52 nM
Kd [6]: 5.12 nM

ACPFGCHTDWSWPIWCA[Sar][Sar][Sar][Sar][Sar][Sar]K(fluorescein) (linker 2-6-16 via TATA, also called fluorescent peptide; tracer) [ACPFGCHTDWSWPIWCA-Sar6-K(FI) (SEQ ID NO: 2)]
Kd [7]: 5 nM

B3: BCY8126: Ac-(SEQ ID NO: 1), cyclised with TATA (peptide)
peptide: CPADCMRDWSTPPWC
modifications: N-terminal acetyl; core as printed Ci-P1-[1Nal]2-[dD]3-Cii-M4-[HArg]5-D6-W7-S8-T9-P10-[HyP]11-W12-Ciii (1Nal = 1-naphthylalanine, dD = D-Asp, HArg = homoarginine, HyP = hydroxyproline); Ci, Cii and Ciii covalently bound to the TATA scaffold
notes: Bicyclic peptide
Kd [8]: 1.07 nM
Ki [9]: 2.7 nM
